Assay results as given in patent US20160297852A1 (FORSCHUNGSZENTRUM JUELICH, published 2016).
Where no end group is shown, it is not given here. [ ]: non-standard residue; d: D form.

B1: RD2 amidated (peptide)
peptide: [dP][dT][dL][dH][dT][dH][dN][dR][dR][dR][dR][dR]-NH2
modifications: N-terminus assumed
SMILES: CC(C)C[C@@H](NC(=O)[C@H](NC(=O)[C@H]1CCCN1)[C@H](C)O)C(=O)N[C@H](Cc1c[nH]cn1)C(=O)N[C@@H](C(=O)N[C@H](Cc1c[nH]cn1)C(=O)N[C@H](CC(N)=O)C(=O)N[C@H](CCCNC(=N)N)C(=O)N[C@H](CCCNC(=N)N)C(=O)N[C@H](CCCNC(=N)N)C(=O)N[C@H](CCCNC(=N)N)C(=O)N[C@H](CCCNC(=N)N)C(N)=O)[C@H](C)O
B2: D3 amidated (peptide)
peptide: [dR][dP][dR][dT][dR][dL][dH][dT][dH][dR][dN][dR]-NH2
modifications: N-terminus assumed
SMILES: CC(C)C[C@@H](NC(=O)[C@@H](CCCNC(=N)N)NC(=O)[C@H](NC(=O)[C@@H](CCCNC(=N)N)NC(=O)[C@H]1CCCN1C(=O)[C@H](N)CCCNC(=N)N)[C@H](C)O)C(=O)N[C@H](Cc1c[nH]cn1)C(=O)N[C@@H](C(=O)N[C@H](Cc1c[nH]cn1)C(=O)N[C@H](CCCNC(=N)N)C(=O)N[C@H](CC(N)=O)C(=O)N[C@H](CCCNC(=N)N)C(N)=O)[C@H](C)O
B3: D3RD2 amidated (peptide)
peptide: [dR][dP][dR][dT][dR][dL][dH][dT][dH][dR][dN][dR][dP][dT][dL][dH][dT][dH][dN][dR][dR][dR][dR][dR]-NH2
modifications: N-terminus assumed
SMILES: CC(C)C[C@@H](NC(=O)[C@@H](CCCNC(=N)N)NC(=O)[C@H](NC(=O)[C@@H](CCCNC(=N)N)NC(=O)[C@H]1CCCN1C(=O)[C@H](N)CCCNC(=N)N)[C@H](C)O)C(=O)N[C@H](Cc1c[nH]cn1)C(=O)N[C@@H](C(=O)N[C@H](Cc1c[nH]cn1)C(=O)N[C@H](CCCNC(=N)N)C(=O)N[C@H](CC(N)=O)C(=O)N[C@H](CCCNC(=N)N)C(=O)N1CCC[C@@H]1C(=O)N[C@@H](C(=O)N[C@H](CC(C)C)C(=O)N[C@H](Cc1c[nH]cn1)C(=O)N[C@@H](C(=O)N[C@H](Cc1c[nH]cn1)C(=O)N[C@H](CC(N)=O)C(=O)N[C@H](CCCNC(=N)N)C(=O)N[C@H](CCCNC(=N)N)C(=O)N[C@H](CCCNC(=N)N)C(=O)N[C@H](CCCNC(=N)N)C(=O)N[C@H](CCCNC(=N)N)C(N)=O)[C@H](C)O)[C@H](C)O)[C@H](C)O
B4: RD2RD2 amidated (peptide)
peptide: [dP][dT][dL][dH][dT][dH][dN][dR][dR][dR][dR][dR][dP][dT][dL][dH][dT][dH][dN][dR][dR][dR][dR][dR]-NH2
modifications: N-terminus assumed
SMILES: CC(C)C[C@@H](NC(=O)[C@H](NC(=O)[C@H]1CCCN1C(=O)[C@@H](CCCNC(=N)N)NC(=O)[C@@H](CCCNC(=N)N)NC(=O)[C@@H](CCCNC(=N)N)NC(=O)[C@@H](CCCNC(=N)N)NC(=O)[C@@H](CCCNC(=N)N)NC(=O)[C@@H](CC(N)=O)NC(=O)[C@@H](Cc1c[nH]cn1)NC(=O)[C@H](NC(=O)[C@@H](Cc1c[nH]cn1)NC(=O)[C@@H](CC(C)C)NC(=O)[C@H](NC(=O)[C@H]1CCCN1)[C@H](C)O)[C@H](C)O)[C@H](C)O)C(=O)N[C@H](Cc1c[nH]cn1)C(=O)N[C@@H](C(=O)N[C@H](Cc1c[nH]cn1)C(=O)N[C@H](CC(N)=O)C(=O)N[C@H](CCCNC(=N)N)C(=O)N[C@H](CCCNC(=N)N)C(=O)N[C@H](CCCNC(=N)N)C(=O)N[C@H](CCCNC(=N)N)C(=O)N[C@H](CCCNC(=N)N)C(N)=O)[C@H](C)O
B5: RD2D3 amidated (peptide)
peptide: [dP][dT][dL][dH][dT][dH][dN][dR][dR][dR][dR][dR][dR][dP][dR][dT][dR][dL][dH][dT][dH][dR][dN][dR]-NH2
modifications: N-terminus assumed
SMILES: CC(C)C[C@@H](NC(=O)[C@@H](CCCNC(=N)N)NC(=O)[C@H](NC(=O)[C@@H](CCCNC(=N)N)NC(=O)[C@H]1CCCN1C(=O)[C@@H](CCCNC(=N)N)NC(=O)[C@@H](CCCNC(=N)N)NC(=O)[C@@H](CCCNC(=N)N)NC(=O)[C@@H](CCCNC(=N)N)NC(=O)[C@@H](CCCNC(=N)N)NC(=O)[C@@H](CCCNC(=N)N)NC(=O)[C@@H](CC(N)=O)NC(=O)[C@@H](Cc1c[nH]cn1)NC(=O)[C@H](NC(=O)[C@@H](Cc1c[nH]cn1)NC(=O)[C@@H](CC(C)C)NC(=O)[C@H](NC(=O)[C@H]1CCCN1)[C@H](C)O)[C@H](C)O)[C@H](C)O)C(=O)N[C@H](Cc1c[nH]cn1)C(=O)N[C@@H](C(=O)N[C@H](Cc1c[nH]cn1)C(=O)N[C@H](CCCNC(=N)N)C(=O)N[C@H](CC(N)=O)C(=O)N[C@H](CCCNC(=N)N)C(N)=O)[C@H](C)O
B6: D3D3 amidated (peptide)
peptide: [dR][dP][dR][dT][dR][dL][dH][dT][dH][dR][dN][dR][dR][dP][dR][dT][dR][dL][dH][dT][dH][dR][dN][dR]-NH2
modifications: N-terminus assumed
SMILES: CC(C)C[C@@H](NC(=O)[C@@H](CCCNC(=N)N)NC(=O)[C@H](NC(=O)[C@@H](CCCNC(=N)N)NC(=O)[C@H]1CCCN1C(=O)[C@H](N)CCCNC(=N)N)[C@H](C)O)C(=O)N[C@H](Cc1c[nH]cn1)C(=O)N[C@@H](C(=O)N[C@H](Cc1c[nH]cn1)C(=O)N[C@H](CCCNC(=N)N)C(=O)N[C@H](CC(N)=O)C(=O)N[C@H](CCCNC(=N)N)C(=O)N[C@H](CCCNC(=N)N)C(=O)N1CCC[C@@H]1C(=O)N[C@H](CCCNC(=N)N)C(=O)N[C@@H](C(=O)N[C@H](CCCNC(=N)N)C(=O)N[C@H](CC(C)C)C(=O)N[C@H](Cc1c[nH]cn1)C(=O)N[C@@H](C(=O)N[C@H](Cc1c[nH]cn1)C(=O)N[C@H](CCCNC(=N)N)C(=O)N[C@H](CC(N)=O)C(=O)N[C@H](CCCNC(=N)N)C(N)=O)[C@H](C)O)[C@H](C)O)[C@H](C)O

target: A beta oligomers of the QIAD test (A beta aggregated under controlled conditions) (UniProt P05067 672-713, limits assumed); assay: cell-based or functional assay
Sequence (P05067 672-713 limits assumed): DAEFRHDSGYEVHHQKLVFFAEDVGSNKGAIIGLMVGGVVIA

Q: With B1 as the binder, how does the “QIAD: reduction of oligomers in %” value read?
A: The value was 78%.

Q: Which “QIAD: reduction of oligomers in %” value does the source give for B2 here?
A: Its value is 56%.

Q: Which “QIAD: reduction of oligomers in %” value does the source give for B3 here?
A: Its value is 88%.

Q: With B4 as the binder, how does the “QIAD: reduction of oligomers in %” value read?
A: Its value is 97%.

Q: Which “QIAD: reduction of oligomers in %” value does the source give for B5 here?
A: Its value is 100%.

Q: Which “QIAD: reduction of oligomers in %” value does the source give for B6 here?
A: Its value is 98%.
